# Assay results: US20130243722A1
# Columns and labels:
# Experiment in all cases: cell-based or functional assay
# [1] = molecular target: rhesus monkey IL-12 receptor on rhesus monkey CD14- PBMC (rhesus monkey) (UniProt F6X0C8)
# [2] = molecular target: rat IL-12 receptor on rat PBMC (rat)
# [3] = molecular target: murine IL-12 receptor on mouse CD14- PBMC (mouse) (UniProt P97378)
# Sequence of murine IL-12 receptor on mouse CD14- PBMC (mouse) (P97378 24-874): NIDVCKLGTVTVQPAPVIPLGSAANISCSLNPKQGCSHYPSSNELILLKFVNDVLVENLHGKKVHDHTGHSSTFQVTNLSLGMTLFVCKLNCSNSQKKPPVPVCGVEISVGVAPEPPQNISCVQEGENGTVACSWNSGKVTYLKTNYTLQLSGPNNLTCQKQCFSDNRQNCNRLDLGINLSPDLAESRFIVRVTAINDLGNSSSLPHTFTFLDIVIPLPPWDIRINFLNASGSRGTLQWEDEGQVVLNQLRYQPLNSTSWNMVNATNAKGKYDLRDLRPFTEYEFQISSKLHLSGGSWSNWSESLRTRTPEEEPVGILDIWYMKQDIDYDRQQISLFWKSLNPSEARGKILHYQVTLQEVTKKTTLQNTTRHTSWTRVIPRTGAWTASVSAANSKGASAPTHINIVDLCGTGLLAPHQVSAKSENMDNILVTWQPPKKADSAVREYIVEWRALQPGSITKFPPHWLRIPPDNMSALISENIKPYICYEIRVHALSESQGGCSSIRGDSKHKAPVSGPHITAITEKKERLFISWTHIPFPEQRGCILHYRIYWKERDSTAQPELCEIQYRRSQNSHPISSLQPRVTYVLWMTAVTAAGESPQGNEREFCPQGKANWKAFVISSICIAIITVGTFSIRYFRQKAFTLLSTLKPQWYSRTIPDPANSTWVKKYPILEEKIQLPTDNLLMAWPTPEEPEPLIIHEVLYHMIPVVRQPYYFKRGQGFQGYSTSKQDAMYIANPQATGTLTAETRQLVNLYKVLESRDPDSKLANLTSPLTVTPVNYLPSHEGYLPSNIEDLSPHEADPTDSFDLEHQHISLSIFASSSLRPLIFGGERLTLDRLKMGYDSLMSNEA
# Sequence of rhesus monkey IL-12 receptor on rhesus monkey CD14- PBMC (rhesus monkey) (F6X0C8 entry or part of it): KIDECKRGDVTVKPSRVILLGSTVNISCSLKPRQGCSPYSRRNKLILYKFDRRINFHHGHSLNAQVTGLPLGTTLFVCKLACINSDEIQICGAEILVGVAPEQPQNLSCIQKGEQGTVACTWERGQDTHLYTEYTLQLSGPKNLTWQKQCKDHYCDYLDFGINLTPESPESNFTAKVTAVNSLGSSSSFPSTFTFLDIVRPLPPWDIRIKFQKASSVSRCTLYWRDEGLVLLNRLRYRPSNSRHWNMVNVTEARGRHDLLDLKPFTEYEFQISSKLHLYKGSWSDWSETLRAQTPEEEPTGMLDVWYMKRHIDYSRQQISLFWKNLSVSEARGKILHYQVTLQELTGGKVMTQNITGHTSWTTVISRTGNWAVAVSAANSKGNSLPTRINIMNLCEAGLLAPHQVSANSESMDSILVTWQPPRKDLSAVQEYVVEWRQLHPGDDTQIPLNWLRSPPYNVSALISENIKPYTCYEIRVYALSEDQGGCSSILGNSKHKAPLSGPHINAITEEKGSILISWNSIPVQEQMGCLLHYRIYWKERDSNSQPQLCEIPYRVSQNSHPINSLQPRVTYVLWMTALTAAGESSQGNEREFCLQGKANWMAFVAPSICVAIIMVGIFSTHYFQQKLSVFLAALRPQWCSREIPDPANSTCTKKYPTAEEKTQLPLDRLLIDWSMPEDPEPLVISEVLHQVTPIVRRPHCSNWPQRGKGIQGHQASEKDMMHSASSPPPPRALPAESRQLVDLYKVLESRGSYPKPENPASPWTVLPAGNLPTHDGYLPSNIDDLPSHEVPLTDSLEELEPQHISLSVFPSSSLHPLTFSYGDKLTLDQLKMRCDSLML
Substance,"EC50 for stimulating IFN-γ secretion from CD14- PBMC (ELISA, 16 hours) [1] [pM]",EC50 for stimulating IFN-γ secretion from PBMC [2] [pM],EC50 for stimulating IFN-γ secretion from PBMC [3] [pM],"EC50 for stimulating IFN-γ secretion from CD14- PBMC (ELISA, 16 hours) [3] [pM]"
recombinant human IL-12 (from UniProt P29459 23-219; P29460 23-328) (ligand),1.05,> 1000,> 1000,
recombinant murine IL-12 (from UniProt P43431 23-215; P43432 24-335) (ligand),,,,0.35
